Assay results as given in patent US20110093964A1 (COMMISSARIAT A L ENERGIE ATOMIQUE, published 2011).

Target: native bovine brain calmodulin (bovine, UniProt P62157 2-149)
Experiment: tryptophan fluorescence of 5 uM MLCKp (excitation 280 nm) in 10 mM MES pH 6.5, one equivalent of calmodulin, no metals

binding result: binds
B1: MLCKp peptide, 17 residues, derived from the calmodulin-binding domain of a rabbit muscle myosin light chain kinase (CALBIOCHEM) (peptide)
peptide: Ac-RRKWQKTGHAVRAIGRL-NH2
notes: Its tryptophan is the fluorescent probe of the assay; also called calmodulin ligand peptide; the ligand
